These results are taken from IntAct's records for PubMed 28054552.

The labels stand for the following.
B1: Hexokinase-2 (Homo sapiens), P52789 (parent)
chain: MIASHLLAYFFTELNHDQVQKVDQYLYHMRLSDETLLEISKRFRKEMEKGLGATTHPTAAVKMLPTFVRSTPDGTEHGEFLALDLGGTNFRVLWVKVTDNGLQKVEMENQIYAIPEDIMRGSGTQLFDHIAECLANFMDKLQIKDKKLPLGFTFSFPCHQTKLDESFLVSWTKGFKSSGVEGRDVVALIRKAIQRRGDFDIDIVAVVNDTVGTMMTCGYDDHNCEIGLIVGTGSNACYMEEMRHIDMVEGDEGRMCINMEWGAFGDDGSLNDIRTEFDQEIDMGSLNPGKQLFEKMISGMYMGELVRLILVKMAKEELLFGGKLSPELLNTGRFETKDISDIEGEKDGIRKAREVLMRLGLDPTQEDCVATHRICQIVSTRSASLCAATLAAVLQRIKENKGEERLRSTIGVDGSVYKKHPHFAKRLHKTVRRLVPGCDVRFLRSEDGSGKGAAMVTAVAYRLADQHRARQKTLEHLQLSHDQLLEVKRRMKVEMERGLSKETHASAPVKMLPTYVCATPDGTEKGDFLALDLGGTNFRVLLVRVRNGKWGGVEMHNKIYAIPQEVMHGTGDELFDHIVQCIADFLEYMGMKGVSLPLGFTFSFPCQQNSLDESILLKWTKGFKASGCEGEDVVTLLKEAIHRREEFDLDVVAVVNDTVGTMMTCGFEDPHCEVGLIVGTGSNACYMEEMRNVELVEGEEGRMCVNMEWGAFGDNGCLDDFRTEFDVAVDELSLNPGKQRFEKMISGMYLGEIVRNILIDFTKRGLLFRGRISERLKTRGIFETKFLSQIESDCLALLQVRAILQHLGLESTCDDSIIVKEVCTVVARRAAQLCGAGMAAVVDRIRENRGLDALKVTVGVDGTLYKLHPHFAKVMHETVKDLAPKCDVSFLQSEDGSGKGAALITAVACRIREAGQR
B2: Hexokinase-1 (Homo sapiens), P19367 (parent)
chain: MIAAQLLAYYFTELKDDQVKKIDKYLYAMRLSDETLIDIMTRFRKEMKNGLSRDFNPTATVKMLPTFVRSIPDGSEKGDFIALDLGGSSFRILRVQVNHEKNQNVHMESEVYDTPENIVHGSGSQLFDHVAECLGDFMEKRKIKDKKLPVGFTFSFPCQQSKIDEAILITWTKRFKASGVEGADVVKLLNKAIKKRGDYDANIVAVVNDTVGTMMTCGYDDQHCEVGLIIGTGTNACYMEELRHIDLVEGDEGRMCINTEWGAFGDDGSLEDIRTEFDREIDRGSLNPGKQLFEKMVSGMYLGELVRLILVKMAKEGLLFEGRITPELLTRGKFNTSDVSAIEKNKEGLHNAKEILTRLGVEPSDDDCVSVQHVCTIVSFRSANLVAATLGAILNRLRDNKGTPRLRTTVGVDGSLYKTHPQYSRRFHKTLRRLVPDSDVRFLLSESGSGKGAAMVTAVAYRLAEQHRQIEETLAHFHLTKDMLLEVKKRMRAEMELGLRKQTHNNAVVKMLPSFVRRTPDGTENGDFLALDLGGTNFRVLLVKIRSGKKRTVEMHNKIYAIPIEIMQGTGEELFDHIVSCISDFLDYMGIKGPRMPLGFTFSFPCQQTSLDAGILITWTKGFKATDCVGHDVVTLLRDAIKRREEFDLDVVAVVNDTVGTMMTCAYEEPTCEVGLIVGTGSNACYMEEMKNVEMVEGDQGQMCINMEWGAFGDNGCLDDIRTHYDRLVDEYSLNAGKQRYEKMISGMYLGEIVRNILIDFTKKGFLFRGQISETLKTRGIFETKFLSQIESDRLALLQVRAILQQLGLNSTCDDSILVKTVCGVVSRRAAQLCGAGMAAVVDKIRENRGLDRLNVTVGVDGTLYKLHPHFSRIMHQTVKELSPKCNVSFLLSEDGSGKGAALITAVGVRLRTEASS

The first assay covers variants of B1. The settings on record: with src_mouse Src.
For Y686F, the “effect of a mutation on the interaction” value is “disrupting interaction strength”.

In another assay the parent is B2. To be noted: with src_mouse Src.
For the variant Y417F, the “effect of a mutation on the interaction” value is “with no effect”. For the variant Y732F, the “effect of a mutation on the interaction” value was “disrupting interaction strength”.

For the variant Y27F, the “effect of a mutation on the interaction” value was “with no effect”.
